The source of these data is doi:10.1101/589515 (bioRxiv, 2019).

This data set concerns the molecule itself. The data set is described as follows: cryo-EM structure.

For orientation: stoichiometry N means the number of molecules, sites or subunits per partner or assembly.

B1: human polycystin-2 (PC2), truncated construct Pro185 - Asp723 (domain or fragment, UniProt Q13563 185-723, looked up)
chain: PRVAWAERLVRGLRGLWGTRLMEESSTNREKYLKSVLRELVTYLLFLIVLCILTYGMMSSNVYYYTRMMSQLFLDTPVSKTEKTNFKTLSSMEDFWKFTEGSLLDGLYWKMQPSNQTEADNRSFIFYENLLLGVPRIRQLRVRNGSCSIPQDLRDEIKECYDVYSVSSEDRAPFGPRNGTAWIYTSEKDLNGSSHWGIIATYSGAGYYLDLSRTREETAAQVASLKKNVWLDRGTRATFIDFSVYNANINLFCVVRLLVEFPATGGVIPSWQFQPLKLIRYVTTFDFFLAACEIIFCFFIFYYVVEEILEIRIHKLHYFRSFWNCLDVVIVVLSVVAIGINIYRTSNVEVLLQFLEDQNTFPNFEHLAYWQIQFNNIAAVTVFFVWIKLFKFINFNRTMSQLSTTMSRCAKDLFGFAIMFFIIFLAYAQLAYLVFGTQVDDFSTFQECIFTQFRIILGDINFAEIEEANRVLGPIYFTTFVFFMFFILLNMFLAIINDTYSEVKSDLAQQKAEMELSDLIRKGYHKALVKLKLKKNTVD
With B1, the “stoichiometry N” value came out at 4.
